Test results as given in patent US12559749B2, “Methods of rescuing stop codons via genetic reassignment with ACE-tRNA” (UNIVERSITY OF IOWA RESEARCH FOUNDATION, priority 2017, dated 2026).

Test system: native stop codons (TAA, TAG, TGA), 3′UTR ribosome density
Assay: Ribosome footprint profiling of transcriptome-wide 3′UTRs, HEK293 cells
Assay type: cell-based, human
Excerpt: The question was raised whether ACE-tRNAs that show efficacious suppression of premature stop codons may also induce global readthrough of native stop codons. To address this potential “off target” suppression, a transcriptome-wide quantitative profile of actively engaged ribosomes on all cellular transcripts was obtained by generating libraries of ribosome footprints from HEK293 cells expressing exogenous ACE-tRNAs or a control mock plasmid (puc57GG). Streptomycin was removed from the growth media to prevent readthrough artifacts. For comparison, the ribosome footprint library was also generated from cells in the presence or absence of G418 (150 μM, 48 h). […] Only transcripts with a minimum threshold of 5 RPKM in the coding sequence and 0.5 RPKM in the 3′UTR in two replicate libraries were included for the quantitation comparison (254 transcripts in G418 and 495-748 transcripts in ACE-tRNAs). […] ACE-tRNAs examined here had no detectable change of 3′UTR ribosome density with the exception of ACE-tRNA Gln-UAA and Arg-UGA which induced approximately a 2-fold increase in 3′UTR ribosome density for the cognate stop codon complimentary to the ACE-tRNA anticodon. Understanding the biological significance of 2-fold readthrough of protein stops will require further study, but this effect is substantially lower compared to the 100- to 1000-fold suppression of PTC for the same ACE-tRNA.
Multiple in-frame stop codons are frequently found at the end of genes 37-39 and may cause a minor difference in overall 3′UTR ribosome density for ACE-tRNA and G418 treatment. Ribosome occupancy was examined at each nucleotide in the 3′UTR within a 60 nt region downstream of the stop codons. […] Reads were normalized per total million-mapped reads, compared against control cells, and reported as a log 2-fold change as in panel A. More than 5,200 transcripts were mapped to at least 1 footprint in the region of interest. […] Taken together, the ribosome profiling data argue that efficiency of native stop codon suppression by ACE-tRNAs is generally low, and markedly less than the level of PTC suppression.
Ribosome Footprint Profiling Library preparation. HEK293 cells transiently transfected with ACE-tRNAs and control plasmid (puc57GG) were grown in standard grown media in the absence of Pen-Strep for 48 h. Libraries were prepared as described^55, with a few modifications. Briefly, cells were rapidly cooled by addition of ice-cold PBS, lysed in lysis buffer (20 mM Tris-HCl/pH7.4, 150 mM NaCl, 5 mM MgCl2, 1 mM DTT, 1% (v/v) Triton X-100, and 25 U ml^−1 Turbo DNase I) for 10 min on ice, and triturated with ten times through a 26-G needle. […]

B1: Glychr19.trna2: top performing glycine ACE-tRNA UGA, SEQ ID NO: 53 (nucleic acid)
chain: GCGUUGGUGGUAUAGUGGUUAGCAUAGCUGCCUUCAAAGCAGUUGACCCGGGUUCGAUUCCCGGCCAACGCA
modifications: chemistry not given here
Discussion of profiling data
  readthrough of native stop codons / effect on global translation termination: no significant effect on global translation termination
Per nucleotide, -35 to +65 nt
  ribosome occupancy in the early region of 3′UTR downstream of stop codons: no observable change of ribosome occupancy
